In paper PMC9482650, “Quantitative fragmentomics allow affinity mapping of interactomes” (Nature Communications, 2022):

B1: CLDN2, P57739 (peptide)
chain: FNSYSLTGYV
B2: PDGFRB, P09619 (peptide)
chain: PRAEAEDSFL
B3: ACOT8, O14734 (peptide)
chain: VKPQVSESKL

The binders below were run against LNX1_1, Q8TBB1 (assay: holdup assay). Settings: plain residues with an end cap or a label only (N-terminal biotin on a linker: ado-ado).
Set-up: key: below the threshold = too weak to quantify, mostly under pKd 3.1 to 4

LNX1_1, Q8TBB1, sequence (Q8TBB1 261-371): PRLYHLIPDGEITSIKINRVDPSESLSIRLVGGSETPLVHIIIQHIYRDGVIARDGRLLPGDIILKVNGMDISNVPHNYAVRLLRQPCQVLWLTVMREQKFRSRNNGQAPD

| Binder | pKd |
| --- | --- |
| B1 | 3.94 |
| B2 | 3.83 |
| B3 | below the threshold |

These binders were tested against FRMPD3, Q5JV73 (assay: holdup assay). Settings: plain residues with an end cap or a label only (N-terminal biotin on a linker: ado-ado).
FRMPD3, Q5JV73, sequence (Q5JV73 12-100): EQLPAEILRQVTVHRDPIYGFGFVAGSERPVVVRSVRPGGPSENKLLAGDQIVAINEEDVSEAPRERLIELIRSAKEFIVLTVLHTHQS
Set-up: key: below the threshold = too weak to quantify, mostly under pKd 3.1 to 4

| Binder | pKd |
| --- | --- |
| B1 | below the threshold |
| B2 | 3.56 |
| B3 | below the threshold |

Each binder was assayed against T1, GRIP1_3, Q9Y3R0 (assay: holdup assay). Settings: plain residues with an end cap or a label only (N-terminal biotin on a linker: ado-ado).
T1 sequence (Q9Y3R0 247-346, limits assumed, looked up): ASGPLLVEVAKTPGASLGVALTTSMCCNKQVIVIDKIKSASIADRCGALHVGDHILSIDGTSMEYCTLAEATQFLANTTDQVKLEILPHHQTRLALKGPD
Set-up: key: below the threshold = too weak to quantify, mostly under pKd 3.1 to 4

| Binder | pKd |
| --- | --- |
| B1 | below the threshold |
| B2 | below the threshold |
| B3 | below the threshold |

Each binder was assayed against PDZRN4_1, Q6ZMN7 (assay: holdup assay). Settings: plain residues with an end cap or a label only (N-terminal biotin on a linker: ado-ado).
PDZRN4_1, Q6ZMN7, sequence (Q6ZMN7 213-318): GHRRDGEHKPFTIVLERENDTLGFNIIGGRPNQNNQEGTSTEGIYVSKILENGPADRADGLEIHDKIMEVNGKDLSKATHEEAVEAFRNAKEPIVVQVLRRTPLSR
Set-up: key: below the threshold = too weak to quantify, mostly under pKd 3.1 to 4

| Binder | pKd |
| --- | --- |
| B1 | 3.49 |
| B2 | 3.69 |
| B3 | 3.83 |

Each binder was assayed against MAGI2_6, Q86UL8 (assay: holdup assay). Settings: plain residues with an end cap or a label only (N-terminal biotin on a linker: ado-ado).
MAGI2_6, Q86UL8, sequence (Q86UL8 1141-1229): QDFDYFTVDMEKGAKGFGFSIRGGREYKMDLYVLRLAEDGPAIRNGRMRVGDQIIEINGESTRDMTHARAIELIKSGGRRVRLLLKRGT
Set-up: key: below the threshold = too weak to quantify, mostly under pKd 3.1 to 4

| Binder | pKd |
| --- | --- |
| B1 | 3.72 |
| B2 | 4.26 |
| B3 | below the threshold |

Each binder was assayed against GORASP1, Q9BQQ3 (assay: holdup assay). Settings: plain residues with an end cap or a label only (N-terminal biotin on a linker: ado-ado).
GORASP1, Q9BQQ3, sequence (Q9BQQ3 1-208): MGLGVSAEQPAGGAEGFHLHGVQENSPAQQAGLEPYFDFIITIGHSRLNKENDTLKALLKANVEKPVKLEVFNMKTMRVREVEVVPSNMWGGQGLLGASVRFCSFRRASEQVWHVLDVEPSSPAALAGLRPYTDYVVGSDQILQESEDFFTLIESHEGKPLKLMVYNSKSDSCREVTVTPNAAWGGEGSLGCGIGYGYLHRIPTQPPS
Set-up: key: below the threshold = too weak to quantify, mostly under pKd 3.1 to 4

| Binder | pKd |
| --- | --- |
| B1 | 4.14 |
| B2 | 3.57 |
| B3 | below the threshold |

Each binder was assayed against PICK1, Q9NRD5 (assay: holdup assay). Settings: plain residues with an end cap or a label only (N-terminal biotin on a linker: ado-ado).
PICK1, Q9NRD5, sequence (Q9NRD5 17-115): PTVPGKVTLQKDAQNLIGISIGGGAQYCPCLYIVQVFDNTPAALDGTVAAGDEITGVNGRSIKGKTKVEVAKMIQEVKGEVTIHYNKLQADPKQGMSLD
Set-up: key: below the threshold = too weak to quantify, mostly under pKd 3.1 to 4

| Binder | pKd |
| --- | --- |
| B1 | 4.14 |
| B2 | 4.2 |
| B3 | 3.84 |

What follows are binders tested against CASK, O14936 (assay: holdup assay). Settings: plain residues with an end cap or a label only (N-terminal biotin on a linker: ado-ado).
CASK, O14936, sequence (O14936 487-570): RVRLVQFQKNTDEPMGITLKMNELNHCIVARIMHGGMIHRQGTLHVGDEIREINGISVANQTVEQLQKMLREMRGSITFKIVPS
Set-up: key: below the threshold = too weak to quantify, mostly under pKd 3.1 to 4

| Binder | pKd |
| --- | --- |
| B1 | below the threshold |
| B2 | below the threshold |
| B3 | below the threshold |

The binders below were run against T2, APBA2_2, Q99767 (assay: holdup assay). Settings: plain residues with an end cap or a label only (N-terminal biotin on a linker: ado-ado).
T2 sequence (Q99767 654-744, limits assumed, looked up): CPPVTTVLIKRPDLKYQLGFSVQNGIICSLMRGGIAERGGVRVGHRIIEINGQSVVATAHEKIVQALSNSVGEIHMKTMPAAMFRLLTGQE
Set-up: key: below the threshold = too weak to quantify, mostly under pKd 3.1 to 4

| Binder | pKd |
| --- | --- |
| B1 | below the threshold |
| B2 | below the threshold |
| B3 | below the threshold |

Each binder was assayed against T3, SNTB1, Q13884 (assay: holdup assay). Settings: plain residues with an end cap or a label only (N-terminal biotin on a linker: ado-ado).
T3 sequence (Q13884 107-205, limits assumed, looked up): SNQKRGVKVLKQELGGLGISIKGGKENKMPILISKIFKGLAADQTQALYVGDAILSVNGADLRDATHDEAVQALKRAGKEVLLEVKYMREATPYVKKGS
Set-up: key: below the threshold = too weak to quantify, mostly under pKd 3.1 to 4

| Binder | pKd |
| --- | --- |
| B1 | 3.61 |
| B2 | 3.64 |
| B3 | 3.85 |

These binders were tested against GRIP2_4, Q9C0E4 (assay: holdup assay). Settings: plain residues with an end cap or a label only (N-terminal biotin on a linker: ado-ado).
GRIP2_4, Q9C0E4, sequence (Q9C0E4 446-548): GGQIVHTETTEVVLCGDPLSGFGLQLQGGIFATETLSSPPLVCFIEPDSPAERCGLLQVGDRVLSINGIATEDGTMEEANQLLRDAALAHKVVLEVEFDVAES
Set-up: key: below the threshold = too weak to quantify, mostly under pKd 3.1 to 4

| Binder | pKd |
| --- | --- |
| B1 | below the threshold |
| B2 | below the threshold |
| B3 | below the threshold |

The binders below were run against MAGI1_1, Q96QZ7 (assay: holdup assay). Settings: plain residues with an end cap or a label only (N-terminal biotin on a linker: ado-ado).
MAGI1_1, Q96QZ7, sequence (Q96QZ7 1-106): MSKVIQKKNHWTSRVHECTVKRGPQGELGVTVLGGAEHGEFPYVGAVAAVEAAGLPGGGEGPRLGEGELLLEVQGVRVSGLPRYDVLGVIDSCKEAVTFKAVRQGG
Set-up: key: below the threshold = too weak to quantify, mostly under pKd 3.1 to 4

| Binder | pKd |
| --- | --- |
| B1 | below the threshold |
| B2 | 3.58 |
| B3 | below the threshold |

The binders below were run against SCRIB_3, Q14160 (assay: holdup assay). Settings: plain residues with an end cap or a label only (N-terminal biotin on a linker: ado-ado).
SCRIB_3, Q14160, sequence (Q14160 999-1103): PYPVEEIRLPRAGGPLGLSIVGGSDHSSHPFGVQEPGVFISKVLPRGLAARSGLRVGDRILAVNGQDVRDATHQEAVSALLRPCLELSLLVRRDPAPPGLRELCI
Set-up: key: below the threshold = too weak to quantify, mostly under pKd 3.1 to 4

| Binder | pKd |
| --- | --- |
| B1 | 3.53 |
| B2 | 4.06 |
| B3 | 4.24 |

These binders were tested against SNX27, Q96L92 (assay: holdup assay). Settings: plain residues with an end cap or a label only (N-terminal biotin on a linker: ado-ado).
Set-up: key: below the threshold = too weak to quantify, mostly under pKd 3.1 to 4

| Binder | pKd |
| --- | --- |
| B1 | 4.06 |
| B2 | 4.71 |
| B3 | 5.34 |

What follows are binders tested against Inadl_1, Q8NI35 (assay: holdup assay). Settings: plain residues with an end cap or a label only (N-terminal biotin on a linker: ado-ado).
Inadl_1, Q8NI35, sequence (Q8NI35 113-229): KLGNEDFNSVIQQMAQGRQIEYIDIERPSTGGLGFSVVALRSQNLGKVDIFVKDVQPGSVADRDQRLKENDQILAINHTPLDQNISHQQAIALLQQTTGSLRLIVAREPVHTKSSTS
Set-up: key: below the threshold = too weak to quantify, mostly under pKd 3.1 to 4

| Binder | pKd |
| --- | --- |
| B1 | below the threshold |
| B2 | below the threshold |
| B3 | below the threshold |

These binders were tested against LNX1_2, Q8TBB1 (assay: holdup assay). Settings: plain residues with an end cap or a label only (N-terminal biotin on a linker: ado-ado).
LNX1_2, Q8TBB1, sequence (Q8TBB1 371-470): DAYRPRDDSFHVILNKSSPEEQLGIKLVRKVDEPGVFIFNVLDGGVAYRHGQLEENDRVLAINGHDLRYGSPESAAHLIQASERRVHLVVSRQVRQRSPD
Set-up: key: below the threshold = too weak to quantify, mostly under pKd 3.1 to 4

| Binder | pKd |
| --- | --- |
| B1 | 4.19 |
| B2 | below the threshold |
| B3 | below the threshold |

What follows are binders tested against DLG4_2, P78352 (assay: holdup assay). Settings: plain residues with an end cap or a label only (N-terminal biotin on a linker: ado-ado).
DLG4_2, P78352, sequence (P78352 155-259): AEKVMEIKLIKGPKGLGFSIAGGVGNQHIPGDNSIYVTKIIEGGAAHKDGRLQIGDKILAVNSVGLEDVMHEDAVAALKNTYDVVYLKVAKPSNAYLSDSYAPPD
Set-up: key: below the threshold = too weak to quantify, mostly under pKd 3.1 to 4

| Binder | pKd |
| --- | --- |
| B1 | 3.56 |
| B2 | 3.48 |
| B3 | below the threshold |

Each binder was assayed against T4, RADIL, Q96JH8 (assay: holdup assay). Settings: plain residues with an end cap or a label only (N-terminal biotin on a linker: ado-ado).
T4 sequence (Q96JH8 971-1071, limits assumed, looked up): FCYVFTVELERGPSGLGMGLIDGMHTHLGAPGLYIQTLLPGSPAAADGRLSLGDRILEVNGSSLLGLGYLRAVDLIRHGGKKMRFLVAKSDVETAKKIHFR
Set-up: key: below the threshold = too weak to quantify, mostly under pKd 3.1 to 4

| Binder | pKd |
| --- | --- |
| B1 | 4.99 |
| B2 | below the threshold |
| B3 | below the threshold |

These binders were tested against T5, PDZRN3_1, Q9UPQ7 (assay: holdup assay). Settings: plain residues with an end cap or a label only (N-terminal biotin on a linker: ado-ado).
T5 sequence (Q9UPQ7 244-349, limits assumed, looked up): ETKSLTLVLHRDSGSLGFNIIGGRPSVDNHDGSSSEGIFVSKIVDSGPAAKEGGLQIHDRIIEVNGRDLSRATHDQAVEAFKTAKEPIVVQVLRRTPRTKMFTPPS
Set-up: key: below the threshold = too weak to quantify, mostly under pKd 3.1 to 4

| Binder | pKd |
| --- | --- |
| B1 | below the threshold |
| B2 | 3.7 |
| B3 | 3.68 |

These binders were tested against Inadl_6, Q8NI35 (assay: holdup assay). Settings: plain residues with an end cap or a label only (N-terminal biotin on a linker: ado-ado).
Inadl_6, Q8NI35, sequence (Q8NI35 1058-1167): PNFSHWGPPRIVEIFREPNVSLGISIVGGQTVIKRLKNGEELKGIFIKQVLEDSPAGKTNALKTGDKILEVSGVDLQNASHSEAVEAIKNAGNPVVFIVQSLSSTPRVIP
Set-up: key: below the threshold = too weak to quantify, mostly under pKd 3.1 to 4

| Binder | pKd |
| --- | --- |
| B1 | below the threshold |
| B2 | 3.81 |
| B3 | below the threshold |

The binders below were run against T6, TX1BP3, O14907 (assay: holdup assay). Settings: plain residues with an end cap or a label only (N-terminal biotin on a linker: ado-ado).
T6 sequence (O14907 10-122, limits assumed, looked up): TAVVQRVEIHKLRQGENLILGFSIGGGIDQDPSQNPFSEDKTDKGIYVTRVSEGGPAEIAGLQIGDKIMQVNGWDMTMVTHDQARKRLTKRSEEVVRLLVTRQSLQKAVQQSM
Set-up: key: below the threshold = too weak to quantify, mostly under pKd 3.1 to 4

| Binder | pKd |
| --- | --- |
| B1 | 4.3 |
| B2 | 4.34 |
| B3 | below the threshold |

What follows are binders tested against MAGI1_2, Q96QZ7 (assay: holdup assay). Settings: plain residues with an end cap or a label only (N-terminal biotin on a linker: ado-ado).
MAGI1_2, Q96QZ7, sequence (Q96QZ7 456-580): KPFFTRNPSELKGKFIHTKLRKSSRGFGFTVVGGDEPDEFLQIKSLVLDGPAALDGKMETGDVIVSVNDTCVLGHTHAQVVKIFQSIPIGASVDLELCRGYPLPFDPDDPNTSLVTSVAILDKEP
Set-up: key: below the threshold = too weak to quantify, mostly under pKd 3.1 to 4

| Binder | pKd |
| --- | --- |
| B1 | below the threshold |
| B2 | below the threshold |
| B3 | below the threshold |

These binders were tested against DLG4_3, P78352 (assay: holdup assay). Settings: plain residues with an end cap or a label only (N-terminal biotin on a linker: ado-ado).
DLG4_3, P78352, sequence (P78352 306-403): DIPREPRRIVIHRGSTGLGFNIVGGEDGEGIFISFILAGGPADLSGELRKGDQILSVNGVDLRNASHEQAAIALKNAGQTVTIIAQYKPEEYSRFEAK
Set-up: key: below the threshold = too weak to quantify, mostly under pKd 3.1 to 4

| Binder | pKd |
| --- | --- |
| B1 | below the threshold |
| B2 | below the threshold |
| B3 | below the threshold |

Each binder was assayed against MAGI2_5, Q86UL8 (assay: holdup assay). Settings: plain residues with an end cap or a label only (N-terminal biotin on a linker: ado-ado).
MAGI2_5, Q86UL8, sequence (Q86UL8 915-1017): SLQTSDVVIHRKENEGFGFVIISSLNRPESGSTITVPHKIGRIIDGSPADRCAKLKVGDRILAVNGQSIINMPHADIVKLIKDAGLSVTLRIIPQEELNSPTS
Set-up: key: below the threshold = too weak to quantify, mostly under pKd 3.1 to 4

| Binder | pKd |
| --- | --- |
| B1 | below the threshold |
| B2 | below the threshold |
| B3 | below the threshold |

The binders below were run against T7, GRIP1_5, Q9Y3R0 (assay: holdup assay). Settings: plain residues with an end cap or a label only (N-terminal biotin on a linker: ado-ado).
T7 sequence (Q9Y3R0 568-668, limits assumed, looked up): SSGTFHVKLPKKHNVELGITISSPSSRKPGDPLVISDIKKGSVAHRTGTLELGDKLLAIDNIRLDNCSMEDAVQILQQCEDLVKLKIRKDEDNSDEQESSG
Set-up: key: below the threshold = too weak to quantify, mostly under pKd 3.1 to 4

| Binder | pKd |
| --- | --- |
| B1 | below the threshold |
| B2 | 3.53 |
| B3 | below the threshold |

What follows are binders tested against FRMPD4, Q14CM0 (assay: holdup assay). Settings: plain residues with an end cap or a label only (N-terminal biotin on a linker: ado-ado).
FRMPD4, Q14CM0, sequence (Q14CM0 67-160): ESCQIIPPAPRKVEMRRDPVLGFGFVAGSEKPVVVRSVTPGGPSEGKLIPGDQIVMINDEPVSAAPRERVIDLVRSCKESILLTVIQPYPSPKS
Set-up: key: below the threshold = too weak to quantify, mostly under pKd 3.1 to 4

| Binder | pKd |
| --- | --- |
| B1 | below the threshold |
| B2 | 4.57 |
| B3 | 3.8 |

These binders were tested against GRIP2_7, Q9C0E4 (assay: holdup assay). Settings: plain residues with an end cap or a label only (N-terminal biotin on a linker: ado-ado).
GRIP2_7, Q9C0E4, sequence (Q9C0E4 934-1023): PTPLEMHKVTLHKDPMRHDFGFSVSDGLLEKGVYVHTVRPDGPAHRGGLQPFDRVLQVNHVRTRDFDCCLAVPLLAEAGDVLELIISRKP
Set-up: key: below the threshold = too weak to quantify, mostly under pKd 3.1 to 4

| Binder | pKd |
| --- | --- |
| B1 | below the threshold |
| B2 | below the threshold |
| B3 | below the threshold |

The binders below were run against SCRIB_2, Q14160 (assay: holdup assay). Settings: plain residues with an end cap or a label only (N-terminal biotin on a linker: ado-ado).
SCRIB_2, Q14160, sequence (Q14160 857-960): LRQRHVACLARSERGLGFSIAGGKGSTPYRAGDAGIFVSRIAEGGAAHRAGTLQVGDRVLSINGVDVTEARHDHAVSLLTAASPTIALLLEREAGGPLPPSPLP
Set-up: key: below the threshold = too weak to quantify, mostly under pKd 3.1 to 4

| Binder | pKd |
| --- | --- |
| B1 | below the threshold |
| B2 | below the threshold |
| B3 | 3.52 |

Each binder was assayed against IL16_4, Q14005 (assay: holdup assay). Settings: plain residues with an end cap or a label only (N-terminal biotin on a linker: ado-ado).
IL16_4, Q14005, sequence (Q14005 1229-1329): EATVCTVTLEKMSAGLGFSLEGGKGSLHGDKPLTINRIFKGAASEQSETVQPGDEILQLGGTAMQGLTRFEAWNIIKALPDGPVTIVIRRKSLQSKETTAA
Set-up: key: below the threshold = too weak to quantify, mostly under pKd 3.1 to 4

| Binder | pKd |
| --- | --- |
| B1 | below the threshold |
| B2 | below the threshold |
| B3 | below the threshold |

These binders were tested against LNX1_3, Q8TBB1 (assay: holdup assay). Settings: plain residues with an end cap or a label only (N-terminal biotin on a linker: ado-ado).
LNX1_3, Q8TBB1, sequence (Q8TBB1 500-596): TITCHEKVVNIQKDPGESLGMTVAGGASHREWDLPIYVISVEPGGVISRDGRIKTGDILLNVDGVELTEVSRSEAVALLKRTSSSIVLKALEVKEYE
Set-up: key: below the threshold = too weak to quantify, mostly under pKd 3.1 to 4

| Binder | pKd |
| --- | --- |
| B1 | below the threshold |
| B2 | below the threshold |
| B3 | below the threshold |
